Values quoted from earlier work in publication PMC5466818.

Target: formin Bnr1 (Saccharomyces cerevisiae) (UniProt P40450)
UniProt P40450, sequence (P40450 whole entry): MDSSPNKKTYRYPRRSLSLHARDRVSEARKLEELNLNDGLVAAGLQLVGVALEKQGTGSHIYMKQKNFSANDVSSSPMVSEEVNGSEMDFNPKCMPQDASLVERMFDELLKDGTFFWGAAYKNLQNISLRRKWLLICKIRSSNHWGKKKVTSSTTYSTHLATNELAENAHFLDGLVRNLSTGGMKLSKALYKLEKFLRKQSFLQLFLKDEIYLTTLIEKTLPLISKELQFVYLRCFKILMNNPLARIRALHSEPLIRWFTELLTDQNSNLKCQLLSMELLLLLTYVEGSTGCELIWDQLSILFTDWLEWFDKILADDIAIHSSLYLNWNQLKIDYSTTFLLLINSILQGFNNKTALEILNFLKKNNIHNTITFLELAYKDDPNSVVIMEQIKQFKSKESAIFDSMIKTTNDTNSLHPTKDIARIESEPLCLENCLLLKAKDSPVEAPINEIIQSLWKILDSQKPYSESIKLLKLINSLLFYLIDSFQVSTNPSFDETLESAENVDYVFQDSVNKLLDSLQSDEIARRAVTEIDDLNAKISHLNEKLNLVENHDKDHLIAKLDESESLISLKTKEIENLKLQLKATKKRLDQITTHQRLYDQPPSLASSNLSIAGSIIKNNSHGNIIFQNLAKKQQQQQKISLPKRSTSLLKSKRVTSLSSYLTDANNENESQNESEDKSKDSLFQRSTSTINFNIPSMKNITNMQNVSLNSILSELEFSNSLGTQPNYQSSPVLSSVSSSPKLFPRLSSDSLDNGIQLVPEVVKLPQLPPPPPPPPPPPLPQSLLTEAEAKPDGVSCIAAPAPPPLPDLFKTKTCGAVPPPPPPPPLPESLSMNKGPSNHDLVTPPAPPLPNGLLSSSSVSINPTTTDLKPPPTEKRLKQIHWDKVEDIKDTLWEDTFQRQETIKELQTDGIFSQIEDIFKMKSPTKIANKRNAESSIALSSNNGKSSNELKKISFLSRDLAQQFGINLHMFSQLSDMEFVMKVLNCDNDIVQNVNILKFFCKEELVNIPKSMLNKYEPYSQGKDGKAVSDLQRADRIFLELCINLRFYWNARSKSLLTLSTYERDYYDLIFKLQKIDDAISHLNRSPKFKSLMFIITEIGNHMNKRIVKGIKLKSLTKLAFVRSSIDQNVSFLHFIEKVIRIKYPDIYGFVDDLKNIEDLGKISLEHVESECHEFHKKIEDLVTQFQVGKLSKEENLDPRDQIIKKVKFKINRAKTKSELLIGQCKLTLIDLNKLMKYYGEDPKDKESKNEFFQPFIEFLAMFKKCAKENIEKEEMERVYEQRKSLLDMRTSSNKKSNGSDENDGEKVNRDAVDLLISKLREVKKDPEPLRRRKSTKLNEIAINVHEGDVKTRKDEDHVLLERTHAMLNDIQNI

Which Kd does the source give for Bud14 (from UniProt P27637) here?
Its Kd is 15 nM.
